Reference: paper PMC12137749 (Nature Communications, 2025)
Read-outs that look alike come from different tables or passages of the source.

Tests used:
[1] = molecular target: the molecule itself
cryo-EM structure = molecular target: the molecule itself; assay: cryo-EM structure

B1: full-length MPXV E5 (mpox virus helicase-primase E5), wild type (enzyme)
chain: MDAAIRGNDVIFVLKTIGVPSACRQNEDPRFVEAFKCDELERYIDNNPECTLFESLRDEEAYSIVRIFMDVDLDACLDEIDYLTAIQDFIIEVSNCVARFAFTECGAIHENVIKSMRSNFSLTKSTNRDKTSFHIIFLDTYTTMDTLIAMKRTLLELSRSSENPLTRSIDTAVYRRKTTLRVVGTRKNPNCDTIHVMQPPHDNIEDYLFTYVDMNNNSYYFSLQRRLEDLVPDKLWEPGFISFEDAIKRVSKIFINSIINFNDLDENNFTTVPLVIDYVTPCALCKKRSHKHPHQLSLENGAIRIYKTGNPHSCKVKIVPLDGNKLFNIAQRILDTNSVLLTERGDHIVWINNSWKFNSEEPLITKLILSIRHQLPKEYSSELLCPRKRKTVEANIRDMLVDSVETDTYPDKLPFKNGVLDLVDGMFYSGDDAKKYTCTVSTGFKFDDTKFVEDSPEMEELMNIINDIQPLTDENKKNRELYEKTLSSCLCGATKGCLTFFFGETATGKSTTKRLLKSAIGDLFVETGQTILTDVLDKGPNPFIANMHLKRSVFCSELPDFACSGSKKIRSDNIKKLTEPCVIGRPCFSNKINNRNHATIIIDTNYKPVFDRIDNALMRRIAVVRFRTHFSQPSGREAAENNDAYDKVKLLDEGLDGKIQNNRYRFAFLYLLVKWYKKYHIPIMKLYPTPEEIPDFAFYLKIGTLLVSSSVKHIPLMTDLSKKGYILYDNVVTLPLTTFQQKISKYFNSRLFGHDIESFINRHKKFANVSDEYLQYIFIEDISSP
- stoichiometry N [1]: 6
- stoichiometry N (cryo-EM structure): 12
